Assay: soluble on expression in E. coli; label from the status in PepcDB or PDB records

| Sequence | soluble on expression in E. coli |
| --- | --- |
| MSYYHHHHHHLESTSLYKKAGLVQRITIAPQGPEFSRFVMGYWRLMDWNMSARQLVSFIEEHLDLGVTTVDHADIYGGYQCEAAFGEALKLAPHLRERMEIVSKCGIATTAREENVIGHYITDRDHIIKSAEQSLINLATDHLDLLLIHRPDPLMDADEVADAFKHLHQSGKVRHFGVSNFTPAQFALLQSRLPFTLATNQVEISPVHQPLLLDGTLDQLQQLRVRPMAWSCLGGGRLFNDDYFQPLRDELAVVAEELNAGSIEQVVNAWVLRLPSQPLPIIGSGKIERVRAAVEAETLKMTRQQWFRIRKAALGYDVP | soluble |
| MTAQKMSAQEIIAFIGNAEKKTNVKVTFEGELATAVPSSVTKLGNVLFGDWKDIEPLLANLTENKDYVVEQDGRNSAVPLLDK | not soluble |
| QKVTLVKKKQETVSIDAGIDRMRRAVRLLDRAEWVEVIDSVRTNKADLLSAYNLIADNGRLEWVKGNQGEATSFVNGRGDHAIMTEKGEDGVYSLHEAHRIGGKWGNAIPLEKLNSRFNENYPSLRADGFTLLFASDRPDGIGGYDLYMTRRDLEDGIFLEPTLLGMPFNSPYNDYLLVYDELRGIGFFASDRFCPADVVTVYTFVINEEGRPVATDDMALKRAYASLKSIRATQDPERDYSRLIASARDNRTDAEKKASERQIYFPMQGMRIYTRWSDFQSSEAKSLYQDVMARKRKLEQAATRLEELRLLYGRASALERSGMKQEILRLENAIPPLEEEVGRMEKEVRNMELQAVQGF | not soluble |
| MGSDKIHHHHHHMAVSELQVQSALKELIDPNTHKDYVTTKSARNIKIDGDAVSVDIALGYPAQSQLATIKQQVEDKLKTLDGVSKATANVSFKIVSHSVQRGVKLIPNVKNIIAVASGKGGVGKSTTAVNLALALAAEGARVGMLDADIYGPSQPTMLGITDKPESTDGKNLDPLIGHGIQAMSIGFLIDVETPMVWRGPMVTQALEQLLNNTNWNELDYLVVDLPPGTGDIQLTLAQRVPVTGAVIVTTPQDIALIDARKGLKMFEKVGIPIIGVVENMSLHICSNCGHEERIFGEGGGERMCRDYNVEFLGALPLDSSIRADTDSGKPSVVSDPDGRVTEIYKQIARRVAVKIGETAVDHSAKFPNIVISNT | not soluble |
| MATSAEVSQRVLAYLVEQLGVDVSFLRHNDRDRRATRLVAEWPPRLNIPDPDPLRLIYFADADPVFALCEHAKEPLVFRPEPATEDYQRLIEEARGVPVTSAAAVPLVSGEITTGLLGFIKFGDRKWHEAELNALMTIATLFAQVQARVAAEARLRYLADHDDLEHHHHHH | not soluble |
| MGSSHHHHHHSSGLVPRGSVCMTEIATTSGARSVGLLSVGAYRPERVVTNDEICQHIDSSDEWIYTATGIKTRRFAADDESAASMATEACRRALSNAGLSAADIDGVIVTTNTHFLQTPPAAPMVAASLGAKGILGFDLSAGCAGFGYALGAAADMIRGGGAATMLVVGTEKLSPTIDMYDAGNCFIFADGAAAVVVGETPFQGIGPTVAGSDGEQADAIRQDIDWITFAQNPSGPRPFVRLEGPAVFRWAAFKMGDVGRRAMDAAGVRPDQIDVFVPHQANSRINELLVKNLQLRPDAVVANDIEHTGNTSAASIPLAMAELLTTGAAKPGDLALLIGYGAGLSYAAQVVRMPKG | soluble |
| TLDYNIQQQAYNLLGDNKGSVVVLNPKTGEILAMVSKPSYDPNDDALKASWAALNSNPDRPLLNRAVSGLYPPGSTFKTVTAISALENISGIQNETFNDPGQLVFNSTESLRDFGGESFGDIGFKHAYVVSSNVVFGKIGLQLGNNNLRQTAESFYFNKNIPCDGIVIDKSKFPTLKSYEKGNMAQSAIGQASVLATPIQMALVASTVANDGVMMKPHVVNEILSPNGDKIKSIEPESIGNIVSKENAATMKDFMRNVVEDGTGVNAAVEGIQVAGKTGTADHKVNGKDATPHSWFIGFAPYDNPQVAIAVIVEDGGQGGKAAAGIASKVIQTALQK | not soluble |
| MRGSHHHHHHGMASMVVNNPNNWHWVDKNCIGWAKEYFKQKLVGVEAGSVKDKKYAKIKSVSSIEGDCEVNQRKGKVISLFDLKITVLIEGHVDSKDGSALPFEGSINVPEVAFDSEASSYQFDISIFKETSELSEAKPLIRSELLPKLRQIFQQFGKDLLATHGNDIQV | soluble |
| MLSIHDPLLIFTDLDGTLLNSHTFEWQPAAPWLTRLHESGVPVILCSSKTAAEMLQLQTTLNLQGLPLIAENGAVIQLDVHWEDHPNYPRLIAGISHNEIRLVLHKLREKEQFKFTTFDDVDDQVISEWTGLNRAQSALTRLHEASVSLIWRDSDERMAQFVARLNDLGLQFVHGARFWHVLDASAGKDQAANWLIEAYRRQWRARPLTLGLGDGPNDAPLLDVMDYAVVVKGLNREGVHLRNDDPQRVYRSQNEGPDGWREGMDYFFSRSLEHHHHHH | soluble |
| MPDGTIDGGHPQRPASPRLRSPLLRLATWNVNSIRTRLDRVLDWLGRADVDVLAMQETKCPDGQFPALPLFELGYDVAHVGFDQWNGVAIASRVGLDDVRVGFDGQPSWSGKPEVAATTEARALGATCGGIRVWSLYVPNGRALDDPHYTYKLDWLAALRDTAEGWLRDDPAAPIALMGDWNIAPTDDDVWSTEFFAGCTHVSEPERKAFNAIVDAQFTDVVRPFTPGPGVYTYWDYTQLRFPKKQGMRIDFILGSPALAARVMDAQIVREERKGKAPSDHAPVLVDLHAG | not soluble |
| MDIHSHQQALDAYENVLEHLREKHIRITETRKAIISYMIQSTEHPSADKIYRDLQPNFPNMSLATVYNNLKVLVDEGFVSELKISNDLTTYYDFMGHQHVNVVCEICGKIADFMDVDVMDIAKEAHEQTGYKVTRIPVIAYGICPDCQAKDQPDF | not soluble |
| MSLRAAARELSVGHTPTIGLVVADLANPFFAQLADRVVWEARSHGVQVMVMTTQEDPHLEADSLDTLLDRSVGGVIATPTGANIEKWARLQSLGVNVVFVDRTIPELEDVDLVSIENVDSARRATEHMLGLGHRRIGLITGPVSTSTGRSRIEGYKAAHNNFSISVDPQLIRDVAFRGDGGGDAVGSLLALPDRPTALIVANTAQVLSSVRRLVQIGVRIPDDLSVIVFDDNPWTELTNPPLSVIRQPIDMLAVHSLELVLGRMQGRLPAAPRTIEVKADFVPRSSCSPLALSEGHHHHHH | soluble |
| NTITVSELLELIKKEDVIIVDTRSPREFKEETLPGAINIPLFLDDEHALIGKTYKQESREKAIEIATDIVEKSLKRILNEAKKLDRDKLIVVFCARGGMRSQTMALILQLLGFKVKRLIGGFKAFKHAVDK | not soluble |
| MSLNTYLNEISKFVDENREEIVSLWKEIVNMESYTHCKESVNKLAERLKLEFEKEGLDCELVDVGDNGSTLIGTLGSNIDKKPIIFSGHMDTVFETGTFGENPFKIIEGKAYGPGVLDMKGGIIISLYVIKALNKIGYKERPIKIVFSGDEEIGHKDSTGADVILREAKGGLCAFNMETGLVDNSLCVGRKGRIGCNIHVKGVETHAGNDFEGGRNAIEEMANKILRIQKLTNLDVGTTVSVSVIKGGRVENSIPEDCSIKVDLRFEKVEEMENVKEQVREICKETYIEGTSTEVNFISEMMPFETTEDVMRFHTFVNEVSKENGFGELNAKRLGGSSDASYLTIANVPTICSFGVRGEWNHTSREYAVVDSMFERVKLISTVILNLDKFEEGHHHHHH | soluble |
| MNEKKERIIKTSIRLFAKKGFAATTIQEIASECGISKGAFYLHFKSKEALLLSACEYYIGMSMNKMKNIEEDLAGKPPKEVLKKQIGAQFEDFRDHKDFIVLLLTENIIPENQEIKQYFYKVTMETDKLYRNALLVSYGEGIERYVADLSIMARGIVHSYMNVMVFNGELNIDAEEISAFIIERLDDLVQGLSRSALNPIVSKDIFNPMPAGKDQLLEDIQKVKENSTLPEDITVSLDVIEEELTQDKPRKPIIKGMLSNLAGTNDKEVERLRALILSLSQFDHKKSSL | not soluble |
| MEQYDQLYRLYKSVDTTTLRGYQEFVDLFPPLSSTVALEQWETASDRLDALKADITDEFPGTGETYAEIAARLTRDEAFTALDLYSKYDRSVNVLVLDVDETLRSAGDTDNEIPRDTLYLLTQFHEAGIPIVVCTGQTLENVKGFMIQGLGNDLVSSGQMSIVYESGNGVFTPKHGEDTKRLLYERLDGAVVDVFETVRRRVLSEAPDAVGKRCHLQGNEFNVTLKPNAEVGSDNAVEIIDESLCYLCGLVGDAIAAQVDAEVDDPAGYARAYFSRDPEILDVLEAGGLPTHADIEDAPEAFRDILERVDLGYYEGDAAELVSLELDKSAGVEEAFDVLGIDDPFALVMGDSKSDLRVMRWVDENDAGIAAAPAHSSPDVLDHVSSRDDLVYEAGDASTVLRTIYGISLVEQLDEQGE | soluble |
| MTTTLSPDTARQIVPPEERYAAELAFLAAYDDGPRPPAWRLTPRAVVTFVMGSDGRALRLPEGAETPEGVPRRLTVEGKFVGDRSLVERCVVTLAGERGLLLVGEPGTAKSMLSELLSAAVCGTSGLVVQGTAGTTEDQLKYGWNYALLLAQGPSRTALVPSPVLTAMARGGIARVEEVTRCLPEVQDALVSLLSERRIAVPELSGTDDALAHAAPGFNLIATANLRDKGVSEMSAALKRRFNFETVGPIPDLDAETALVRSQARASVERAGAPFKVDEAVLEALVVAFRDLREGRSTEGWEVERPSTVMSTAEAVSVAGALGLAAAYFPGDRDVLGLLPGHLLGVVRKDDPADAARLRGYWDGPVRRRAEQGSATWRTLWDLRTVLEGLEHHHHHH | not soluble |
| MGRKEEDDCSSWKKQTTNIRKTFIFMEVLGSGAFSEVFLVKQRLTGKLFALKCIKKSPAFRDSSLENEIAVLKKIKHENIVTLEDIYESTTHYYLVMQLVSGGELFDRILERGVYTEKDASLVIQQVLSAVKYLHENGIVHRDLKPENLLYLTPEENSKIMITDFGLSKMEQNGIMSTACGTPGYVAPEVLAQKPYSKAVDCWSIGVITYILLCGYPPFYEETESKLFEKIKEGYYEFESPFWDDISESAKDFICHLLEKDPNERYTCEKALSHPWIDGNTALHRDIYPSVSLQIQKNFAKSKWRQAFNAAAVVHHMRKLHMNLHSPGVRPEVENRPPETQASETSRPSSPEITITEAPVLDHSVALPALTQLPCQHGRRPTAPGGRSLNCLVNGSLHISSSLVPMHQGSLAAGPCGCCSSCLNIGSKGKSSYCSEPTLLKKANKKQNFKSEVMVPVKASGSSHCRAGQTGVCLIM | soluble |
| MRSSTIPAITPAYDPWEAYVDIKEYGKLQLTNIEFTTTTLCNMRCEHCAVGYTLTMKDPEALPLDMLLRRLEEIPHLRSLSITGGEPMLSLKSVEQYVVPLLRYAHERGVRTQLNSNLTLDLSRYEPVIPYLDVLHISHNWGTVDDFVEGGFAMMERKPTRAQREKYFQRMLDNAKALANAGVMVSAETMLNKRTVRHLEAIHRQVVEEMGCQRHEIHPMYPSDFASALETLSLDELREAIHHLLDIRDENVWMLFGTLPFYPCSDNEEDVRLLKRLYESKNVTVRNDPDGRSRLNVNIFTGDVIVTDFGDEPPLGNIIHDSLPDVYDKWRRSKLARELLCHCPSARCLGPNVLVKQTYYRGVDFTKRSARIGR | not soluble |
| MKNELICYKQMPVWTKDNLPQMFQEKHNTKVGTWGKLTVLKGKLKFYELTENGDVIAEHIFTPESHIPFVEPQAWHRVEALSDDLECTLGFYCKKEDYFSKKYNTTAIHGDVVDAAKIISPCKVLDLGCGQGRNSLYLSLLGYDVTSWDHNENSIAFLNETKEKENLNISTALYDINAANIQENYDFIVSTVVFMFLNRERVPSIIKNMKEHTNVGGYNLIVAAMSTDDVPCPLPFSFTFAENELKEYYKDWEFLEYNENMGELHKTDENGNRIKMKFATMLARKK | soluble |

From the DeepSol protein solubility set
